# Measured values published in patent US20100183642A1 (CENTRE NATIONAL DE LA RECHERCHE SCIENTIFIQUE, published 2010).
# Non-standard residues stand in square brackets, D forms with d. No end group written: not given here. *: point of attachment. Biotin = O=C1N[C@H]2[C@H](CS[C@H]2CCCCC(=O)*)N1; Ahx = NCCCCCC(=O)O
# Key:
# [1] = target: recombinant CD40 associated with the constant part of the heavy chain of mouse IgG2a (human CD40 muIg fusion protein, ANCELL Corporation) (human; mouse) (UniProt P25942); assay: SPR (BIAcore 3000): CD40 muIg captured by anti-mouse Ig, ligand injected as analyte
# [2] = target: membranous CD40 on Burkitt's lymphoma cells (BL41, Raji) (UniProt P25942); assay: flow cytometry on BL41 cells, 2.5 µM biotinylated L41 developed with streptavidin-FITC; the control panel without streptavidin-FITC (BL41 L41 2.5 -SAvFITC) prints 1.3% for the same quadrant
# [3] = target: membranous CD40 on Burkitt's lymphoma cells (BL41, Raji) (UniProt P25942); assay: flow cytometry on BL41 cells, 2.5 µM biotinylated L41 developed with streptavidin-FITC; the control panel without streptavidin-FITC (BL41 L41 2.5 -SAvFITC) prints 4.3% for the same quadrant
# [4] = target: T1, recombinant CD40 associated with the constant part of the heavy chain of mouse IgG2a (human CD40 muIg fusion … (human; mouse, UniProt P25942 21-193, limits assumed); assay: SPR (BIAcore 3000): CD40 muIg captured by anti-mouse Ig, ligand injected as analyte
# T1 construct: Bought reagent; Captured on the chip by rabbit antibodies against the constant part of mouse immunoglobulins; not shown: constant part of the heavy chain of mouse IgG2a
# T1 sequence (P25942 21-193 limits assumed): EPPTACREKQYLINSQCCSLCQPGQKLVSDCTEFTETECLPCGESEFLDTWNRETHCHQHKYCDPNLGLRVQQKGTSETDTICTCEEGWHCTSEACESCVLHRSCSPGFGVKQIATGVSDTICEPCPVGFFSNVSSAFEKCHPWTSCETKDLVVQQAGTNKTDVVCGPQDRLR
# Sequence of membranous CD40 on Burkitt's lymphoma cells (BL41, Raji) (P25942 21-277 limits assumed): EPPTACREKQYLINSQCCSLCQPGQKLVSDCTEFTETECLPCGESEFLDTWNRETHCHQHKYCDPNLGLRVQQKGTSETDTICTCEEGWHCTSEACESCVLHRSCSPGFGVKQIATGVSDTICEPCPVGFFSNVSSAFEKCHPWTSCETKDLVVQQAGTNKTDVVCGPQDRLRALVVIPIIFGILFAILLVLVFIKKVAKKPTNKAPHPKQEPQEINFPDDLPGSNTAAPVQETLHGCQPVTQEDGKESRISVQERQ
# Sequence of recombinant CD40 associated with the constant part of the heavy chain of mouse IgG2a (human CD40 muIg fusion protein, ANCELL Corporation) (human; mouse) (P25942 21-193 limits assumed): as the sequence (P25942 21-193 limits assumed) above
Binder,Kd [1] [nM],"% of cells in the upper right quadrant (FL1-H above the line, high FSC-H) [2] [%]","% of cells in the upper left quadrant (FL1-H above the line, low FSC-H) [3] [%]",Kd [4] [nM]
"L41 ligand (compound A), biotinylated (also: three KGYY-Ahx arms, each Ahx amide-linked to side-chain amines of Lys2, Lys4, Lys6 of the cyclic chain, head-to-tail to a chain's N/C-terminus) peptide: KGYY[Ahx] [dA]K[dK](Biotin)K[dA]K",28,23.5,10.2,–
"L40 ligand, compound of formula (III-e) (also: chain 2 cyclised head to tail, three chain-1 arms, each Ahx carboxyl amide-linked to one Lys side-chain amine of cyclic chain 2 (C3-symmetric trimer), head-to-tail to a chain's N/C-terminus, Branched synthetic trimer with C3 symmetry: three pentapeptide arms on a cyclic hexapeptide) peptide: H-K[dP]YY[Ahx] K[dA]K[dA]K[dA]",–,–,–,310
